In general, EC50 refers to the concentration needed to bring the measured effect to its halfway point. Low values mean higher potency in that assay, high ones lower potency in that assay.

For two substances, EC50 results are on record in US20250346673A1.

Test [1] addresses human BDCA2 (human) (UniProt Q8WTT0). Nature of the test: FACS on CHOK1-hBDCA2 cells; EC50 table under the plot, unit from the x axis (nM); fit of a flat control curve.
Test [2] deals with cynomolgus BDCA2 (cynomolgus monkey). Nature of the test: FACS on 293F-cynoBDCA2 cells; EC50 table under the plot, unit from the x axis (nM); fit of a flat control curve [continued) e.].
Chain of cynomolgus BDCA2 (cynomolgus monkey) (chain, as listed by the source): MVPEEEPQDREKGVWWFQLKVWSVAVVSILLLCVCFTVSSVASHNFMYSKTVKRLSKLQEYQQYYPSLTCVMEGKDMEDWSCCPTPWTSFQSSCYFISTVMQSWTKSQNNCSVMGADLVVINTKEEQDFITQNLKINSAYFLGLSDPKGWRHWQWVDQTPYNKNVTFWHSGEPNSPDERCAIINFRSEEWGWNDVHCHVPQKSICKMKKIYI
Test [3] has as its target human BDCA2 (human) (UniProt Q8WTT0). Nature of the test: FACS on CHOK1-hBDCA2 cells; EC50 table under the plot, unit from the x axis (nM); fit of a flat control curve [continued) e.].

Chain of human BDCA2 (human) (Q8WTT0 whole entry): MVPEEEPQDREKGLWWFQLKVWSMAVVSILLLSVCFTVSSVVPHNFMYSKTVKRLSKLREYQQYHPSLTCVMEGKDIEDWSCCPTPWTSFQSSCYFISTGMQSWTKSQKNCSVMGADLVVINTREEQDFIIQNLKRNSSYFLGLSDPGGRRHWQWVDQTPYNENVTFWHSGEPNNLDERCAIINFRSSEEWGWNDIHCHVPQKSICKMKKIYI

On to hIgG1 (antibody), for which the figures for the EC50 (in the test with human BDCA2 (human) [1]; in test [2]) were 0.0613 µM and 0.0218 µM, respectively.

With mIgG1 (antibody), the figures for the EC50 (with human BDCA2 (human) [3]; in test [2]) were 176 µM and 0.0206 µM, respectively.
